In patent US6264958:

Key:
[1] = biological target: recombinant human IL-6 (human)
[2] = biological target: murine IL-6 receptor (murine) (UniProt P22272)

Row | Substance | % Inhibition of B9 cell proliferation driven by 10 pg/ml hIL-6 (MTT, Absorbance570) [1] | % Inhibition of B9 cell proliferation driven by 10 pg/ml hIL-6 (MTT, Absorbance570) [2] | % Inhibition of B9 cell proliferation driven by 1:40 vIL-6 sup (MTT, Absorbance570) [2]
1 | monoclonal antibody directed against murine IL-2 (S4B6, Pharmigen) | 23.4 % inhibition |  | 
2 | functionally neutralizing monoclonal antibody directed against the murine IL-6R (D7715A7, Pharmigen) |  | 80 % inhibition | 53.8 % inhibition
